Data on 1 molecule can be found in publication PMC3894413.

This assay concerns the target BCL-XL (UniProt Q07817). Description: SPR.
UniProt Q07817, sequence (Q07817 whole entry): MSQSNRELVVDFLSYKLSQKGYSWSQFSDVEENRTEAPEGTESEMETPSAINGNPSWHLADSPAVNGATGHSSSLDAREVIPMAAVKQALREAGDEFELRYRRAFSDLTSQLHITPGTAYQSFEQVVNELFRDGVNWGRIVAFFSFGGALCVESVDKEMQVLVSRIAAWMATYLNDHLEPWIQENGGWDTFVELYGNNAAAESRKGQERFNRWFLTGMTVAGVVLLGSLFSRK

B1: BADS BH3 peptide (peptide)
peptide: NLWAAQRYGRELRRMSDEFVDSFKKG
The molecule B1 had a fold higher affinity than BIMS2A BH3 for MCL-1 of 20 fold.
